Experiments:
MORC2 ATPase = target: T1, MORC2 ATPase (Homo sapiens, UniProt Q9Y6X9 1-603); assay: competition; pre-bound; more competitor uptake than WT; EMSA: 20 mM Tris pH 7.4, 75 mM NaCl, 5% glycerol, 0.005% NP-40, 0.5 mM MgCl2, RT 30 min; SPR: 10 mM HEPES pH 7.4, 300 mM NaCl, 3 mM EDTA, 0.05% Tween-20, 20 C; conditions: protein: recombinant; tags: N-terminal 6xHis; closed circle
T1 sequence: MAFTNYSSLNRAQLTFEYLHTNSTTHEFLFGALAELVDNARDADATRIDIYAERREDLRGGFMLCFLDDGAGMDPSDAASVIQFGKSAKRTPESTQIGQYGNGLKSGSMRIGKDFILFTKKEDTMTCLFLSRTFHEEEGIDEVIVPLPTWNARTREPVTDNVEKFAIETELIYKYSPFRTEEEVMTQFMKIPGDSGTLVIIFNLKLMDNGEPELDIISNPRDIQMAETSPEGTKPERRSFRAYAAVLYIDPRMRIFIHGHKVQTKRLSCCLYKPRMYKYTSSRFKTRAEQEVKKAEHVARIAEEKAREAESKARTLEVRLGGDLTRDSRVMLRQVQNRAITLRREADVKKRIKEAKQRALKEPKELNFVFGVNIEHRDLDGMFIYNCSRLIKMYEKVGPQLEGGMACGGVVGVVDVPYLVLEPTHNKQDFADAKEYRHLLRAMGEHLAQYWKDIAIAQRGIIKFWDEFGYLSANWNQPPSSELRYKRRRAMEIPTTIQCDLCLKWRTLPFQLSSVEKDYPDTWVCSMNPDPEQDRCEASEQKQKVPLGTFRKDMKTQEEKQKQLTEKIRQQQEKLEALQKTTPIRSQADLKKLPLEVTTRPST

MORC2 WT = target: T2, MORC2 WT (Homo sapiens, UniProt Q9Y6X9 1-1032); assay: competition; pre-bound; resists 90 bp competitor (clamp); EMSA: 20 mM Tris pH 7.4, 75 mM NaCl, 5% glycerol, 0.005% NP-40, 0.5 mM MgCl2, RT 30 min; SPR: 10 mM HEPES pH 7.4, 300 mM NaCl, 3 mM EDTA, 0.05% Tween-20, 20 C; conditions: protein: recombinant; tags: C-terminal 3C site-twin StrepII; chain copies: 2; closed circle
T2 sequence: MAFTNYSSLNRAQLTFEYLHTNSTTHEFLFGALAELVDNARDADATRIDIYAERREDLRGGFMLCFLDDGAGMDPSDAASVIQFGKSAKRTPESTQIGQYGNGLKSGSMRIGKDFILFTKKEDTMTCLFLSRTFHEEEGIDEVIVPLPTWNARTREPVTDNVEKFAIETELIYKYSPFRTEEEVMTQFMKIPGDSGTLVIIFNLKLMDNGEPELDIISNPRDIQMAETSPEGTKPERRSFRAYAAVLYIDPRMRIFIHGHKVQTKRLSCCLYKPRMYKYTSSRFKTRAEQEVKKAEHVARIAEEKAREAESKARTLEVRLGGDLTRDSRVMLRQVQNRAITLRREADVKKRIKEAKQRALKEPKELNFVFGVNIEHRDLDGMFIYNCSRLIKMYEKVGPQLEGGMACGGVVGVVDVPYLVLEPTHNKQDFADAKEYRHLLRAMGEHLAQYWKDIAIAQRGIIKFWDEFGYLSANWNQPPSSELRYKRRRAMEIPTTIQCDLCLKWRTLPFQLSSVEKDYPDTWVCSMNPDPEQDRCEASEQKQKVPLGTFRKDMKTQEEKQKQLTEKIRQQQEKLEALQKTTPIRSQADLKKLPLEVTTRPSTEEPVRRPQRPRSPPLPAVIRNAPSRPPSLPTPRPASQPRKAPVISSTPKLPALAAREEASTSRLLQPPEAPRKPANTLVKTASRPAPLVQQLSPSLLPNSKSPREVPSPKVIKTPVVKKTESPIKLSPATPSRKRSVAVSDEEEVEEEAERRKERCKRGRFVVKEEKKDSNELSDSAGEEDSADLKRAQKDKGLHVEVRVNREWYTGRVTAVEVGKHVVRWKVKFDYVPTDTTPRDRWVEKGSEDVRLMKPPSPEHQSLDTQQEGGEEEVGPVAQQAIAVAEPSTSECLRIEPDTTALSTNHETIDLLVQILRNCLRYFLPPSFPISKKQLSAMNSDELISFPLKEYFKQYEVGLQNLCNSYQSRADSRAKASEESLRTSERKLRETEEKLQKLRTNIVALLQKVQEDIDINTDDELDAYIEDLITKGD

B1: 101 bp circular dsDNA (dsDNA)
DNA 1: CGGTCGTTTAGCATACTAATCTGAGAGTCCGACGGTCGTCAGTCAGTCATGACTTCACAGAGGAAGGGCCAGTATCCTGTCCAAACTTGATGCTCGAATTC
DNA 2: GAATTCGAGCATCAAGTTTGGACAGGATACTGGCCCTTCCTCTGTGAAGTCATGACTGACTGACGACCGTCGGACTCTCAGATTAGTATGCTAAACGACCG
- binding result (MORC2 ATPase): binds
- binding result (MORC2 WT): binds

From paper PMC12216690, “MORC2 is a phosphorylation-dependent DNA compaction machine” (Nature Communications, 2024)
